{"source": "paper PMC10726430", "about": "(Cell metabolism, 2023)", "proteins": {"B1": {"name": "NSUN2-F1 (amino acid 1–767), recombinant NSUN2 protein (enzyme, human, UniProt Q08J23-1 1-767, looked up)", "chain": "MGRRSRGRRLQQQQRPEDAEDGAEGGGKRGEAGWEGGYPEIVKENKLFEHYYQELKIVPEGEWGQFMDALREPLPATLRITGYKSHAKEILHCLKNKYFKELEDLEVDGQKVEVPQPLSWYPEELAWHTNLSRKILRKSPHLEKFHQFLVSETESGNISRQEAVSMIPPLLLNVRPHHKILDMCAAPGSKTTQLIEMLHADMNVPFPEGFVIANDVDNKRCYLLVHQAKRLSSPCIMVVNHDASSIPRLQIDVDGRKEILFYDRILCDVPCSGDGTMRKNIDVWKKWTTLNSLQLHGLQLRIATRGAEQLAEGGRMVYSTCSLNPIEDEAVIASLLEKSEGALELADVSNELPGLKWMPGITQWKVMTKDGQWFTDWDAVPHSRHTQIRPTMFPPKDPEKLQAMHLERCLRILPHHQNTGGFFVAVLVKKSSMPWNKRQPKLQGKSAETRESTQLSPADLTEGKPTDPSKLESPSFTGTGDTEIAHATEDLENNGSKKDGVCGPPPSKKMKLFGFKEDPFVFIPEDDPLFPPIEKFYALDPSFPRMNLLTRTTEGKKRQLYMVSKELRNVLLNNSEKMKVINTGIKVWCRNNSGEEFDCAFRLAQEGIYTLYPFINSRIITVSMEDVKILLTQENPFFRKLSSETYSQAKDLAKGSIVLKYEPDSANPDALQCPIVLCGWRGKASIRTFVPKNERLHYLRMMGLEVLGEKKKEGVILTNESAASTGQPDNDVTEGQRAGEPNSPDAEEANSPDVTAGCDPAGVHPPR"}}, "target": "the molecule itself", "test": "native gel or EMSA", "data": [{"protein": "B1", "values": [{"measurement": "binding result", "result": "binds"}]}]}
